We go through 22 molecules from patent publication US8008547B2, “Glyphosate-N-acetyltransferase (GAT) genes” (E.I. duPont de Nemours, priority 2000, dated 2011).

This data set is described as follows: Standard protocol for determination of kcat and KM (continuous spectrophotometric assay, Acetyl CoA hydrolysis at 235 nm). The format is biochemical. Particulars: purified protein, about 23° C., 0.2 mM acetyl CoA; for Kcat: 20 mM HEPES pH 6.8, 10% ethylene glycol; for Km: pH 6.8, glyphosate 0.125 to 10 mM. In outline:
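KM from initial rates over 0.125–10 mM glyphosate, fitted by Lineweaver-Burke transformation of Michaelis-Menten; kcat/KM computed as kcat divided by KM. Continuous spectrophotometric read of acetyl-CoA hydrolysis at 235 nm.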

B1: SEQ ID NO: 447: GAT polypeptide (protein)
chain: MLEVKPINAEDTYELRHRILRPNQPIEACMYESDLLRGALHLGGFYRGKLISIASFHQAEHSDLQGQKQYQLRGMATLEGFRDQKAGSSLIRHAEQILRKRGADLLWCNARTSASGYYKKLGFSEQGKVFDTPPVGPHILMYKRIT
modifications: 0_6B4
notes: GAT polypeptide
Turning to B1, the Kcat was determined as 4.2 s⁻¹ and the Km (as a rule, the concentration of substrate that gives half-maximal velocity) came to 800 µM.

B2: SEQ ID NO: 450: GAT polypeptide (protein)
chain: MIEVKPINAEDTYELRHRILRPNQPIEACMYESDLLRGAFHLGGYYRGKLISIASFHQAEHSELQGQKQYQLRGMATLEGFREQKAGSTLIRHAEQILRKRGADMLWCNARTSASGYYKKLGFSEQGEIFDTPPVGPHILMYKRIT
modifications: 0_6F2
notes: GAT polypeptide
Consider B2, for which the Kcat was found to be 2.92 s⁻¹ and the Km turned out to be 340 µM.

B3: SEQ ID NO: 449: GAT polypeptide (protein)
chain: MIEVKPINAEDTYELRHRILRPNQPIEACMYESDLLRGAFHLGGYYRGKLISIASFHQAEHSDLQGQKQYQLRGMATLEGFRDQKAGSSLIRHAEQILRKRGADLLWCNARTSASGYYKKLGFSEQGEVFETPPVGPHILMYKRIT
modifications: 0_6D11
notes: GAT polypeptide
With B3, the Kcat worked out at 3.53 s⁻¹ and the Michaelis constant (Km) was determined as 440 µM.

B4: SEQ ID NO: 459: GAT polypeptide (protein)
chain: MLEVKPINAEDTYELRHRILRPNQPIEACMFETDLLRGAFHLGGFYRGKLISIASFHQAEHSDLQGQKQYQLRGMATLEGFREQKAGSTLIRHAEEILRKRGADLLWCNARTSASGYYKRLGFSEQGEIFDTPPVGPHILMYKRLT
modifications: 11_3B1
notes: GAT polypeptide
For B4, the Kcat is 3.6662 s⁻¹ and the Km is 630 µM.

B5: SEQ ID NO: 464: GAT polypeptide (protein)
chain: MIEVKPINAEDTYELRHRILRPNQPIEVCMYETDLLRGAFHLGGFYRGKLISIASFHQAEHSDLQGQKQYQLRGMATLEGYREQKAGSSLIKHAEQILRKRGADLLWCNARTSASGYYKKLGFSEQGEVFDTPPVGPHILMYKRLT
modifications: 11_3D6
notes: GAT polypeptide
B5 yielded a Kcat of 0.922 s⁻¹.

B6: SEQ ID NO: 458: GAT polypeptide (protein)
chain: MIEVKPINAEDTYELRHKILRPNQPIEVCMYESDLLRGAFHLGGFYRGKLISIASFHQAEHPDLQGQKQYQLRGMATLEGYRDQKAGSSLIKHAEQILRKRGADLLWCNARTSASGYYKKLGFSEQGEVFETPPVGPHILMYKRLT
modifications: 11_3A11
notes: GAT polypeptide
The molecule B6 had a Kcat of 0.9277 s⁻¹.

B7: SEQ ID NO: 460: GAT polypeptide (protein)
chain: MIEVKPINAEDTYELRHRILRPNQPIEACMFESDLLRGAFHLGGYYRGKLISIASFHQAEHSELQGQKQYQLRGMATLEGYRDQKAGSSLIRHAEQILRKRGADMLWCNARTSASGYYKKLGFSEQGEVFDTPPVGPHILMYKRIT
modifications: 11_3B5
notes: GAT polypeptide
Regarding B7, the Kcat amounted to 3.2435 s⁻¹ and the Km was found to be 260 µM.

B8: SEQ ID NO: 462: GAT polypeptide (protein)
chain: MIEVKPINAEDTYELRHKILRPNQPIEACMYESDLLRGALHLGGYYRGKLISIASFHQAEHSELQGQKQYQLRGMATLEGYREQKAGSSLIKHAEEILRKRGADLLWCNARTSASGYYKKLGFSEQGEVFDTPPVGPHILMYKRIT
modifications: 11_3C3
notes: GAT polypeptide
For the molecule B8, the Kcat came to 3.567 s⁻¹ and the Km was determined as 220 µM.

B9: SEQ ID NO: 453: GAT polypeptide (protein)
chain: MIEVKPINAEDTYELRHRILRPNQPIEVCMYETDLLRGAFHLGGFYRGKLISIASFHQAEHSDLQGQKQYQLRGMATLEGYREQKAGSTLIRHAEQILRKRGADLLWCNARTSASGYYKKLGFSEQGEVFDTPPVGPHILMYKRIT
modifications: 10_4D5
notes: GAT polypeptide
For B9, the Kcat worked out at 1.379 s⁻¹.

B10: SEQ ID NO: 455: GAT polypeptide (protein)
chain: MIEVKPINAEDTYELRHRILRPNQPIEVCMYETDLLRGAFHLGGFYRGKLISIASFHQAEHSELQGQKQYQLRGMATLEGFREQKAGSSLIRHAEQILRKRGADLLWCNARTSASGYYKKLGFSEQGEIFDTPPVGPHILMYKRLT
modifications: 10_4F9
notes: GAT polypeptide
For B10, the Kcat was 0.9232 s⁻¹.

B11: SEQ ID NO: 456: GAT polypeptide (protein)
chain: MIEVKPINAEDTYELRHRILRPNQPIEACMFESDLLRGAFHLGGYYRGKLISIASFHQAEHSDLQGQKQYQLRGMATLEGYRDQKAGSSLIRHAEQILRKRGADLLWCNARTSASGYYKKLGFSEQGEIFDTPPVGPHILMYKRLT
modifications: 10_4G5
notes: GAT polypeptide
In the case of B11, the Kcat came to 2.9442 s⁻¹ and the Km came out at 580 µM.

B12: SEQ ID NO: 452: GAT polypeptide (protein)
chain: MIEVKPINAEDTYELRHKILRPNQPLEVCMYETDLLRGAFHLGGXYRGKLISIASFHQAEHSELQGQKQYQLRGMATLEGYRDQKAGSSLIKHAEQILRKRGADXLWCNARTSASGYYKKLGFSEQGEIFDTPPVGPHILMYKRLT
modifications: X: residue not identified in the source; ends and bridges not checked
notes: GAT polypeptide
In the case of B12, the Kcat turned out to be 1.16 s⁻¹.

B13: SEQ ID NO: 461: GAT polypeptide (protein)
chain: MIEVKPINAEDTYELRHRILRPNQPLEVCMYETDLLRGAFHLGGFYGGKLISIASFHQAEHPDLQGQKQYQLRGMATLEGYRDQKAGSSLIRHAEQLLRKRGADLLWCNARTSASGYYKKLGFSEQGEIFETPPVGPHILMYKRIT
modifications: 11_3C12
notes: GAT polypeptide
On to B13, for which the Kcat is 0.8178 s⁻¹.

B14: SEQ ID NO: 465: GAT polypeptide (protein)
chain: MLEVKPINAEDTYELRHRILRPNQPIEVCMYETDLLRGAFHLGGFYGGKLISIASFHQAEHSELQGQKQYQLRGMATLEGYRDQKAGSSLIKHAEEILRKRGADLLWCNARTSASGYYKKLGFSEQGEVFETPPVGPHILMYKRLT
modifications: 1_1G12
notes: GAT polypeptide
Regarding B14, the Kcat was found to be 0.9747 s⁻¹.

B15: SEQ ID NO: 454: GAT polypeptide (protein)
chain: MLEVKPINAEDTYELRHRILRPNQPIEACMFESDLLRGAFHLGGFYRGKLISIASFHQAEHSELQGQKQYQLRGMATLEGYREQKAGSSLIRHAEEILRKRGADMLWCNARTSASGYYKKLGFSEQGEIFETPPVGPHILMYKRLT
modifications: 10_4F2
notes: GAT polypeptide
As for B15, the Kcat turned out to be 3.8507 s⁻¹ and the Km is 200 µM.

B16: SEQ ID NO: 467: GAT polypeptide (protein)
chain: MIEVKPINAEDTYELRHRILRPNQPLEACMYESDLLRGSFHLGGFYRGKLISIASFHQAEHSELEGQKQYQLRGMATLEGFREQKAGSSLIRHAEEILRKRGADLLWCNARTTAAGYYKKLGFSEQGEIFDTPPVGPHILMYKRIT
modifications: 1_1H2
notes: GAT polypeptide
With B16, the Kcat stood at 2.73 s⁻¹ and the Michaelis-Menten constant (Km) is 440 µM.

B17: SEQ ID NO: 275: GAT polypeptide (protein)
chain: MIEVKPINAEDTYEIRHRILRPNQPLEACMYETDLLGGTLHLGGYYRGKLISIASFHQAEHPELEGQKQYQLRGMATLEEYREQKAGSTLIRHAEELLRKKGADLLWCNARTSASGYYKKLGFSEQGGVYDIPPVGPHILMYKKLT
modifications: 10_20D10
notes: GAT polypeptide
Turning to B17, the Kcat is 1.44 s⁻¹ and the Km was found to be 1600 µM.

B18: SEQ ID NO: 277: GAT polypeptide (protein)
chain: MIEVKPINAEDTYEIRHRILRPNQPLEACKYETDLLGGTFHLGGYYRGKLISIASFHQAEHPELEGQKQYQLRGMATLEEYREQKAGSTLIRHAEELLRKKGADLLWCNARTSASGYYKKLGFSEQGEVYDTPPVGPHILMYKKLT
modifications: 10_2B8
notes: GAT polypeptide
Regarding B18, the Kcat was 1.807 s⁻¹ and the Km worked out at 1100 µM.

B19: SEQ ID NO: 276: GAT polypeptide (protein)
chain: MIEVKPINAEDTYEIRHRILRPNQPLEACMYETDLLGGTFHLGGYYRGKLVSIASFHQAEHPELEGQKQYQLRGMATLEGYREQKAGSTLIRHAEELLRKKGADLLWCNARTSASGYYKKLGFSEQGEVYDTPPVGPHILMYKKLT
modifications: 10_23F2
notes: GAT polypeptide
Consider B19, for which the Kcat came out at 1.688 s⁻¹ and the Km was 900 µM.

B20: SEQ ID NO: 451: GAT polypeptide (protein)
chain: MIEVKPINAEDTYELRHKILRPNQPIEACMYETDLLRGAFHLGGFYGGKLISIASFHQAEHSDLEGQKQYQLRGMATLEGYREQKAGSTLIRHAEEILRKKGANLLWCNARTSASGYYKKLGFSEQGEVFDTPPVGPHILMYKRLT
modifications: 0_6H9
notes: GAT polypeptide
Turning to B20, the Kcat came to 3.8 s⁻¹ and the Michaelis constant (Km) stood at 470 µM.

B21: SEQ ID NO: 463: GAT polypeptide (protein)
chain: MLEVKPINAEDTYELRHKILRPNQPIEACMFESDLLRGAFHLGGFYGGKLISIASFHQAEHSDLEGQKQYQLRGMATLEGYREQKAGSTLIRHAEEILRKRGADLLWCNARTSASGYYKKLGFSEQGEIFDTPPVGPHILMYKRIT
modifications: 11_3C6
notes: GAT polypeptide
For the molecule B21, the Kcat stood at 3.074 s⁻¹ and the Km turned out to be 210 µM.

B22: SEQ ID NO: 466: GAT polypeptide (protein)
chain: MIEVKPINAEETYELRHKILRPNQPIEACMYESDLLRGSFHLGGFYRGQLISIASFHKAEHSELQGQKQYQLRGMATLEGFREQKAGSSLIRHAEEILRNKGADLLWCNARTTASGYYKRLGFSEHGEVFETPPVGPHILMYKRIT
modifications: 1_1H1
notes: GAT polypeptide
Consider B22, for which the Kcat is 4.85 s⁻¹ and the Km turned out to be 1800 µM.
